Test results taken from the supplement of paper PMC10126150.
± gives the standard deviation of the averaged measurements.

Test system: ATP
Assay: switch fluorescence ratio, 500 uM ATP over buffer (Cy3 cluster intensity, sum of 5 cycles each) (fold (ratio)); higher = stronger signal-on switching upon ATP binding; sequences stand for … in TCGTCGGCAGCGTCAGATGTGTATAAGAGACAGTTTTTTTTTTTTTTTTTTTTTTTTT…TC
Settings: aptamer strand: ATP DNA aptamer (quencher-CACCTGGGGGAGTATTGCGGAGGAAGG + anchor), 100 nM annealed; ATP concentration: 500 uM
Method in brief: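 Imaging in selection buffer was followed by imaging after 15 min with 500 uM ATP at 22 °C, for Cy3-labelled switching-strand clusters annealed to 100 nM quencher-labelled ATP aptamer on a modified Illumina MiSeq flow-cell. Five of these buffer/ATP cycles ran, separated by NaOH stripping and re-annealing. The fluorescence ratio per cluster is summed target-cycle over summed buffer-cycle Cy3 intensity, averaged per switch-domain sequence; clusters outside 100-1000 RFU were removed.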
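Note: ATP exposure 15 min at 22 °C before imaging.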

Sequence | switch fluorescence ratio
AGGGCCTGGG | 0.999 ± 0.04
AGGGCGACCG | 1.07 ± 0.069
AGGGCGCGCT | 1.01 ± 0.034
AGGGCGCTG | 0.9885 ± 0.0045
AGGGCGTCGA | 0.986 ± 0.034
AGGGCGTGGC | 0.9876 ± 0.0018
AGGGCGTTTG | 0.998 ± 0.018
AGGGCTAAAT | 0.995 ± 0.025
AGGGCTGACG | 1.02 ± 0.024
AGGGCTGGAT | 1.06 ± 0.12
AGGGCTTTCC | 1.075 ± 0.007
AGGGGAAGCT | 1.03 ± 0.081
AGGGGAAGTC | 0.953 ± 0.015
AGGGGAATAA | 0.997 ± 0.015
AGGGGAATG | 1 ± 0.022
AGGGGAATGC | 1.09 ± 0.084
AGGGGAATTA | 1.026 ± 0.0047
AGGGGACAAA | 1 ± 0.035
AGGGGACTGT | 1.01 ± 0.047
AGGGGAGATG | 0.991 ± 0.048
AGGGGAGGAA | 0.994 ± 0.013
AGGGGAGGGC | 0.998 ± 0.042
AGGGGAGTAA | 0.996 ± 0.023
AGGGGATGGG | 1.03 ± 0.033
AGGGGCAAAG | 1.01 ± 0.013

Sequence | switch fluorescence ratio
AGGGGCATGG | 0.998 ± 0.04
AGGGGCCGGG | 1.05 ± 0.12
AGGGGCCTGT | 0.962 ± 0.037
AGGGGCGAGA | 0.999 ± 0.013
AGGGGCGGAG | 0.9743 ± 0.0035
AGGGGCTCGT | 1 ± 0.012
AGGGGCTGAA | 0.986 ± 0.042
AGGGGCTTGT | 0.979 ± 0.024
AGGGGGAATA | 1.02 ± 0.011
AGGGGGACGG | 0.987 ± 0.023
AGGGGGATGG | 0.996 ± 0.013
AGGGGGCAAC | 1.04 ± 0.03
AGGGGGCGTA | 0.9896 ± 0.0086
AGGGGGCGTG | 1.03 ± 0.031
AGGGGGCTAT | 1.02 ± 0.015
AGGGGGCTCG | 1 ± 0.024
AGGGGGCTGG | 0.977 ± 0.018
AGGGGGGATT | 1 ± 0.019
AGGGGGGCCC | 1 ± 0.037
AGGGGGGGAA | 1.01 ± 0.032
AGGGGGGGTG | 1.05 ± 0.11
AGGGGGGTAA | 0.993 ± 0.026
AGGGGGGTG | 1 ± 0.039
AGGGGGTCGT | 0.98 ± 0.017
AGGGGGTTAA | 0.996 ± 0.017

Sequence | switch fluorescence ratio
AGGGGGTTGA | 1.03 ± 0.032
AGGGGGTTGC | 1.01 ± 0.026
AGGGGGTTTC | 1 ± 0.022
AGGGGTAACG | 0.9807 ± 0.0098
AGGGGTAGTA | 1.03 ± 0.04
AGGGGTAGTG | 0.98 ± 0.019
AGGGGTATAT | 1.02 ± 0.028
AGGGGTATTT | 1.01 ± 0.041
AGGGGTGAGC | 1.02 ± 0.072
AGGGGTGCCG | 1.05 ± 0.026
AGGGGTGGCG | 1.02 ± 0.014
AGGGGTGGTT | 0.9581 ± 0.0017
AGGGGTGTCT | 1.03 ± 0.017
AGGGGTTCCG | 0.979 ± 0.042
AGGGGTTGGC | 0.958 ± 0.056
AGGGGTTGGG | 0.992 ± 0.061
AGGGGTTGTA | 0.971 ± 0.02
AGGGGTTTCT | 0.984 ± 0.016
AGGGTAAAGT | 0.98 ± 0.018
AGGGTAACTT | 1.01 ± 0.023
AGGGTAAGGT | 1.04 ± 0.082
AGGGTAATGC | 1.11 ± 0.09
AGGGTAATGT | 0.9718 ± 0.0036
AGGGTAATTA | 0.979 ± 0.029
AGGGTACTTA | 1.05 ± 0.028

Sequence | switch fluorescence ratio
AGGGTAGGCC | 1.009 ± 0.0019
AGGGTAGTTT | 0.985 ± 0.045
AGGGTATGAA | 0.998 ± 0.022
AGGGTATGTA | 1 ± 0.015
AGGGTATTGG | 0.993 ± 0.028
AGGGTCAGCT | 1.02 ± 0.014
AGGGTCGATG | 1.07 ± 0.073
AGGGTCGGGA | 0.9838 ± 0.0013
AGGGTCTCCG | 1 ± 0.062
AGGGTCTTCG | 1.04 ± 0.012
AGGGTGAACC | 0.99 ± 0.016
AGGGTGACCT | 1.17 ± 0.15
AGGGTGAGAG | 0.965 ± 0.025
AGGGTGAGGT | 0.993 ± 0.022
AGGGTGGGGC | 1.03 ± 0.065
AGGGTGGGTT | 0.9771 ± 0.005
AGGGTGGTGC | 1.03 ± 0.018
AGGGTGGTTG | 0.987 ± 0.058
AGGGTTCCTG | 0.954 ± 0.036
AGGGTTCGGG | 1.01 ± 0.031
AGGGTTGCGC | 1.02 ± 0.019
AGGGTTGGGG | 0.991 ± 0.031
AGGGTTGTCG | 0.99 ± 0.023
AGGGTTTCCG | 1.03 ± 0.038
AGGGTTTGGT | 0.982 ± 0.02

Sequence | switch fluorescence ratio
AGGTAAAGGG | 0.996 ± 0.04
AGGTAAATGT | 0.972 ± 0.023
AGGTAAATTC | 2.33 ± 0.63
AGGTAAATTG | 1.01 ± 0.015
AGGTAACTGG | 1.001 ± 0.00096
AGGTAATATG | 0.9867 ± 0.0081
AGGTAATCAT | 1.01 ± 0.05
AGGTAATGTT | 1.01 ± 0.021
AGGTAGAAGT | 1.03 ± 0.012
AGGTAGATAA | 0.99834 ± 0.00052
AGGTAGGGCT | 1 ± 0.029
AGGTAGGGGA | 1.01 ± 0.041
AGGTAGGTCC | 0.998 ± 0.022
AGGTAGGTTC | 0.995 ± 0.019
AGGTAGTATT | 1.04 ± 0.012
AGGTATCCCT | 1.01 ± 0.022
AGGTATGTTT | 1 ± 0.068
AGGTATTGCT | 0.9854 ± 0.0091
AGGTCAGGTG | 3.06 ± 0.33
AGGTCAGTTA | 0.998 ± 0.028
AGGTCCAGGT | 1.262 ± 0.0015
AGGTCCCAGC | 1 ± 0.02
AGGTCCCGTT | 0.993 ± 0.036
AGGTCGGTGG | 1.07 ± 0.11
AGGTCTATTT | 1.008 ± 0.0024

Sequence | switch fluorescence ratio
AGGTCTGGGC | 0.978 ± 0.074
AGGTCTGTGG | 0.982 ± 0.04
AGGTGAAAGT | 0.983 ± 0.029
AGGTGAAGCC | 1.01 ± 0.038
AGGTGACGG | 0.993 ± 0.058
AGGTGACTCG | 1.04 ± 0.017
AGGTGAGGGG | 0.99 ± 0.022
AGGTGATTCT | 1.04 ± 0.025
AGGTGCGGAA | 1.0109 ± 0.00064
AGGTGCGGGG | 1.01 ± 0.042
AGGTGGCGTC | 1.03 ± 0.027
AGGTGGGGGG | 1.01 ± 0.043
AGGTGGGTTG | 1.01 ± 0.055
AGGTGTGGGT | 1.01 ± 0.037
AGGTGTTCGG | 0.976 ± 0.019
AGGTGTTTAC | 1.01 ± 0.011
AGGTTAAAAC | 1.2 ± 0.19
AGGTTAAAGG | 1 ± 0.016
AGGTTAAGAC | 0.99 ± 0.044
AGGTTAAGGT | 1.01 ± 0.02
AGGTTAATTT | 1.01 ± 0.046
AGGTTAGGGG | 0.998 ± 0.037
AGGTTAGTGT | 0.9584 ± 0.001
AGGTTATAGT | 1.03 ± 0.051
AGGTTCAGTC | 1.02 ± 0.022

Sequence | switch fluorescence ratio
AGGTTCCTGT | 0.9944 ± 0.0091
AGGTTCGGCG | 1 ± 0.015
AGGTTCGTAT | 1.01 ± 0.03
AGGTTCTTTG | 0.974 ± 0.026
AGGTTGAAAA | 0.963 ± 0.032
AGGTTGATGG | 0.954 ± 0.043
AGGTTGGAGA | 0.992 ± 0.023
AGGTTGGAGG | 0.976 ± 0.018
AGGTTGGAGT | 1.02 ± 0.04
AGGTTGTGGT | 1.01 ± 0.016
AGGTTGTTAT | 0.969 ± 0.013
AGGTTTAGAC | 1.01 ± 0.021
AGGTTTAGGG | 1.03 ± 0.034
AGGTTTAGTT | 0.993 ± 0.0065
AGGTTTATGT | 1.0099 ± 0.00068
AGGTTTATTG | 0.993 ± 0.0097
AGGTTTGCGG | 1.011 ± 0.0037
AGGTTTGGAC | 1.09 ± 0.17
AGGTTTGGGG | 1.04 ± 0.033
AGGTTTGTGA | 0.995 ± 0.029
AGGTTTTAGT | 1.013 ± 0.005
AGGTTTTTAA | 1.01 ± 0.043
AGGTTTTTGC | 1.02 ± 0.02
AGGTTTTTGT | 0.982 ± 0.036
AGGTTTTTTT | 0.993 ± 0.017

Sequence | switch fluorescence ratio
AGTAAAATAG | 0.968 ± 0.017
AGTAAATTCT | 0.9887 ± 0.0015
AGTAAGGGTT | 1 ± 0.048
AGTAATGGGA | 1.06 ± 0.064
AGTAATTTGT | 0.988 ± 0.019
AGTACAGGCG | 1.024 ± 0.0097
AGTACGAGCC | 1.186 ± 0.0026
AGTACGATAT | 1.14 ± 0.025
AGTACGGGGT | 0.982 ± 0.031
AGTACTCTGT | 1.01 ± 0.039
AGTACTTGCC | 1.03 ± 0.016
AGTAGATTTT | 0.986 ± 0.04
AGTAGCAGCG | 0.963 ± 0.04
AGTAGCGGGA | 1.02 ± 0.024
AGTAGCGGGT | 0.981 ± 0.026
AGTAGGACTC | 1.01 ± 0.013
AGTAGGGAAA | 1 ± 0.033
AGTAGGGCAG | 0.9976 ± 0.006
AGTAGGGCGA | 1 ± 0.092
AGTAGGGCGT | 0.9964 ± 0.0088
AGTAGGGCTT | 1.01 ± 0.039
AGTAGGGGAG | 1.01 ± 0.028
AGTAGGGGTG | 1.01 ± 0.032
AGTAGGTAAT | 0.9902 ± 0.0071
AGTAGGTG | 1.05 ± 0.04
